This is an account of results in the supplement of paper PMC10567573.

± gives the standard deviation.

This data set is described as follows: protein stability index of a GFP-peptide fusion (GPS, HEK-293T) (PSI 1-6); higher = more stable. The conditions noted are these: c terminus: a fixed tail appended.
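Further: 24-mer peptide tiles fused after GFP, lentivirally expressed, FACS-sorted into six equal bins by GFP/DsRed ratio, decoded by Illumina sequencing, PSI is the read-weighted mean bin number.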

Take MKDSMSAAEVGTGQYATTKGISQT [EPB41L3]: the protein stability index (treatment: DMSO) turned out to be 4.75 ± 0.094 and the protein stability index (treatment: MLN4924 1 uM, 8 h) amounted to 4.78 ± 0.44.

Regarding MLLDIKTRLEQEIATYRSLLEGQD [KRT15], the protein stability index amounted to 2.9 ± 0.34 (treatment: DMSO) and 3.07 ± 0.34 (treatment: MLN4924 1 uM, 8 h).

Turning to MLQATAEANNLAAAASAKDIYYNN [ATL3], the protein stability index reads like this: (treatment: DMSO) 3.15 ± 0.18; (treatment: MLN4924 1 uM, 8 h) 3.44 ± 0.38.

In turn, MLTRRVLQLETVLEGVVSQIDAVG [PKD2L1] yielded a protein stability index (treatment: DMSO) of 2.29 ± 0.49 and a protein stability index (treatment: MLN4924 1 uM, 8 h) of 2.46 ± 0.51.

With MPGFPDNIRPSSSGGYWVGMSTIR [APMAP], the protein stability index came to 2.87 ± 0.38 (treatment: DMSO) and 2.9 ± 0.42 (treatment: MLN4924 1 uM, 8 h).

As for MPSPCSCMSFNPETRRLSIGLDNG [WDFY2], the protein stability index runs as follows: (treatment: DMSO) 3.19 ± 0.13; (treatment: MLN4924 1 uM, 8 h) 3.29 ± 0.25.

Consider MQAQASIEGAPEVTMSSLFKHILR [SLC25A25], for which the protein stability index runs as follows: (treatment: DMSO) 2.36 ± 0.32; (treatment: MLN4924 1 uM, 8 h) 2.14 ± 0.13.

Sequence MQLKSPMPSSTTQKDSYQPPGNVY [SPAG8] registered a protein stability index (treatment: DMSO) of 4.13 ± 0.17 and a protein stability index (treatment: MLN4924 1 uM, 8 h) of 4.14 ± 0.16.

Turning to MRARDSVYHIECFRCSVCSRQLLP [ISL2], the protein stability index is 2.2 ± 0.24 (treatment: DMSO) and 2.22 ± 0.35 (treatment: MLN4924 1 uM, 8 h).

Turning to MSFPHFGHPYRGASQFLASASSST [IRX6], the protein stability index is, setting by setting: (treatment: DMSO) 3.25 ± 0.21; (treatment: MLN4924 1 uM, 8 h) 3.13 ± 0.25.

As to MSIMGNVLRFLPAFVRMKQLIEEG [GFOD1], the protein stability index by setting is: (treatment: DMSO) 2.31 ± 0.43; (treatment: MLN4924 1 uM, 8 h) 2.42 ± 0.28.

For MSTFRQEDVEDHYEMGEELGSGQF [DAPK3], the protein stability index runs as follows: (treatment: DMSO) 5.43 ± 0.22; (treatment: MLN4924 1 uM, 8 h) 5.33 ± 0.48.

Take MSVILSMDNNRNLDLDSIIDEVRT [KRT71]: the protein stability index amounted to 2.61 ± 0.22 (treatment: DMSO) and 2.52 ± 0.59 (treatment: MLN4924 1 uM, 8 h).

Take MTLAANHELMLRFKDEYKSENIKL [CCDC89]: the protein stability index runs as follows: (treatment: DMSO) 3.44 ± 0.17; (treatment: MLN4924 1 uM, 8 h) 3.72 ± 0.25.

For MTTDFDLSLDNSPLLQSIHQLDFV [TRIM9], the protein stability index runs as follows: (treatment: DMSO) 2.7 ± 0.33; (treatment: MLN4924 1 uM, 8 h) 2.71 ± 0.24.

Turning to MTVEKEAPDAHFTVDKQNISLWPR [CD207], the protein stability index runs as follows: (treatment: DMSO) 3.58 ± 0.36; (treatment: MLN4924 1 uM, 8 h) 3.86 ± 0.5.

As for MVANILNNEAFMNQEITKAFHVRR [RHOBTB2], the protein stability index reads like this: (treatment: DMSO) 2.53 ± 0.27; (treatment: MLN4924 1 uM, 8 h) 2.5 ± 0.27.

Take MVGLILGPFGINHGIELHSDVVEY [PCMTD1]: the protein stability index (treatment: DMSO) came out at 2.68 ± 0.65 and the protein stability index (treatment: MLN4924 1 uM, 8 h) stood at 2.85 ± 0.52.

As for MVGPLAQDPQSPMAGLRWLDSWDF [POMT2], the protein stability index by setting is: (treatment: DMSO) 2.66 ± 0.42; (treatment: MLN4924 1 uM, 8 h) 2.75 ± 0.41.

Consider MVRRLKMVVKTFMDMDQDSEEEKE [PDS5B], for which the protein stability index stood at 2.73 ± 0.38 (treatment: DMSO) and 3.13 ± 0.26 (treatment: MLN4924 1 uM, 8 h).

With MYASSAPPSEPVPSLEDISCNTWP [TBX5], the protein stability index is, setting by setting: (treatment: DMSO) 3.95 ± 0.17; (treatment: MLN4924 1 uM, 8 h) 3.97 ± 0.22.

In turn, NCKRERDARVKRKLRGPEPAATEA [TBX6] gave a protein stability index (treatment: DMSO) of 4.84 ± 0.42 and a protein stability index (treatment: MLN4924 1 uM, 8 h) of 4.66 ± 0.22.

Consider NCPEFPPPDRTLGCWATDAAPAAG [RSPH3], for which the protein stability index is, setting by setting: (treatment: DMSO) 4.4 ± 0.4; (treatment: MLN4924 1 uM, 8 h) 4.47 ± 0.3.

For the sequence NCRLSEGDVMHLSQSPSVSQLSVL [PRAME], the protein stability index runs as follows: (treatment: DMSO) 2.29 ± 0.63; (treatment: MLN4924 1 uM, 8 h) 2.37 ± 0.065.

In the case of NEDEDLGPCEGPSKEDKDLDSSEG [SPANXN3], the protein stability index was 5.66 ± 0.21 (treatment: DMSO) and 5.54 ± 0.17 (treatment: MLN4924 1 uM, 8 h).

With NEKIYELRVMETKPDKAVSIIECD [UFD1], the protein stability index worked out at 4.33 ± 0.11 (treatment: DMSO) and 4.28 ± 0.16 (treatment: MLN4924 1 uM, 8 h).

As to NEPSQAETAVEGDPSGVSGATVGR [C18orf25], the protein stability index came to 5.66 ± 0.22 (treatment: DMSO) and 5.66 ± 0.11 (treatment: MLN4924 1 uM, 8 h).

Take NESMKAYHNSPAYLAYINAKSRAE [SMARCE1]: the protein stability index stood at 4.42 ± 0.27 (treatment: DMSO) and 4.26 ± 0.49 (treatment: MLN4924 1 uM, 8 h).

With NEYVAIKLEPIKSRAPQLHLEYRF [CSNK1G1], the protein stability index runs as follows: (treatment: DMSO) 2.31 ± 0.3; (treatment: MLN4924 1 uM, 8 h) 2.53 ± 0.36.
